# Test results published in the RNAGym collection of RNA variant scans (doi:10.1073/pnas.2313332121).
# This sample holds only a part of the variants without activity.
# B1: TPR 5TU (parent)
# chain: GGAUCUUCUCGAUCUAACAAAAAAGACAAAUCUGCCACAAAGCUUGAGAGCAUCUUCGGAUGCAGAGGCGGCAGCCUUCGGUGGCGCGAUAGCGCCAACGUUCUCAACUAUGACACGCAAAACGCGUGCUCCGUUGAAUGGAGUUUAUCAUG
# Variants of: B1
# Experiment: polymerase ribozyme fitness, log enrichment relative to wild type (log ratio); higher = more active; in vitro selection for triplet polymerase activity
# In short: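 A heterodimeric triplet polymerase ribozyme had each of its subunits mutagenized by PCR into a library, which was transcribed. One round of in vitro selection, done in triplicate, annealed each library with a biotinylated primer, its partner subunit and triplets, then incubated it frozen at −7 °C before gel excision of extended constructs, streptavidin-bead capture and RT-PCR. Fitness is the logarithm of genotype enrichment relative to wild-type enrichment, based on Illumina sequencing of inputs and outputs and inverse-variance-weighted replicate averages. A base-2 logarithm is used, and genotypes were kept only with ≥10 input reads and ≥1 read per output.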
row,Variant,polymerase ribozyme fitness (log ratio)
1,U15G C51U G86U A89U C114U,≤ -4.2
2,G124A A150G,-0.501
3,A41C C99G,-0.603
4,U13C A19G U45G C93A A106U,-2.34
5,C57G G83U,-0.732
6,C8U A28U U53A G67A C69U G88C A89U A98G A138C,≤ -4.2
7,G42A C75G C87A,≤ -4.2
8,U55A A122G,-0.237
9,A3C C14G A52C C93U G141U,-4.16
10,U13A C69A A120C,-2.74
11,A91U G128A U139C A150U,≤ -4.2
12,G48A C108U,≤ -4.2
13,C18G A49C G67U G84U A107U,≤ -4.2
14,A24U A47C G71C A97U A98G C129G,≤ -4.2
15,C35U C96G,-0.818
16,A52C A97U,-1.59
17,U56A G58A C72U C87U U109G G136A U144C,-4.13
18,U82G C95A A110U A138U,≤ -4.2
19,G92U G141A,-1.81
20,A22G A30U C36G G83C U146G,≤ -4.2
21,G48C C63U A142G,-1.03

row,Variant,polymerase ribozyme fitness (log ratio)
1,C54G G80U,-3.52
2,G50U G65C A66C C96G,≤ -4.2
3,C10G U33A C69A C96G,≤ -4.2
4,C27U C75G U78A C85U U148G,≤ -4.2
5,U56A G59A C105G A110G A150C,≤ -4.2
6,U33C C54U C96U A107C,≤ -4.2
7,A16U C85A,-2.74
8,U13A C57U A73C C96G,≤ -4.2
9,G86A G143U,-3.07
10,G50C C95U,-3.47
11,C79U A150C,≤ -4.2
12,C5G A39U G59U G68A A98G A115G A137G G143U,≤ -4.2
13,A26C U134G,-4.1
14,A52G A107U,-3.56
15,G59A G136C,-2.89
16,A60U C85U U148C,-3.17
17,C8A C27U U56C U111C A138G,≤ -4.2
18,A22C A41U U53C C75U,-2.58
19,A17G A22G U82C C99A,-2.88
20,A39U U56A C93U,-3.55
21,G94A A110G,-2.35

row,Variant,polymerase ribozyme fitness (log ratio)
1,C51U G94A C118U,-1.44
2,C57G G58C A137C,-3.85
3,C5G G71U,-3.09
4,A52C A91U C93A G133C,≤ -4.2
5,C54U C87G A142C,≤ -4.2
6,C14G G59C C69A A142G,≤ -4.2
7,U61C G126A,-0.237
8,A12U C57G G65A,-3.18
9,C85A C108U U135A U144C,-4.17
10,A30U A52G G58A G70U C79U G83A C93U,≤ -4.2
11,U55A G59A,1.69
12,C36A G48U C54G C57A C72A A91C,≤ -4.2
13,G94A G143A,-1.01
14,A37C G94U A98U,-1.16
15,U33A G74A,≤ -4.2
16,A16C A20C C85A G141C,-2.3
17,U78C C87U G92A A115U,-2.33
18,A17G C93G C95U,≤ -4.2
19,C5A A28U U55A C57G C96U G141U,≤ -4.2
20,A12U C35U A91G,-3.67
21,A16U G58A C93A,-3.46

row,Variant,polymerase ribozyme fitness (log ratio)
1,A39U G86A,-3.06
2,A17U G59C G86C A113U,≤ -4.2
3,A49C A119U,≤ -4.2
4,A73U G84A G92A A122C U134A,≤ -4.2
5,U7A C14G C32U A106G U148C,≤ -4.2
6,U53A G62C C93A C118G G133A,≤ -4.2
7,C14G U77G A97U U111C,-4.01
8,G50U A97U U102A G124A,-2.31
9,A89C A97U U101G A110G U134G G141A,≤ -4.2
10,G50U A122G,-0.236
11,A40G C57A C72U C87A,≤ -4.2
12,A20U A24G C32G U78A G83C,≤ -4.2
13,U56C G62U C87U,-0.567
14,C75G C96U A120C,≤ -4.2
15,U44A G62U G80C G140C,≤ -4.2
16,C38U C85U C95G C105A,-3.93
17,A21U U77G U78C G84A,≤ -4.2
18,G42C G88U C95A,≤ -4.2
19,A12G U78C U139G,-1.31
20,C76U G88A C99A C103A,≤ -4.2
21,G70A G84U C116A,-4.13
